Source: patent US20250355001A1, “METHOD FOR DETECTING A TAU PROTEIN FRAGMENT IN A SAMPLE” (GTINVENT LIMITED, priority 2022, published 2025)

Legend:
hT40 = target: T1, hT40 (Homo sapiens, UniProt P10636); experiment: Sandwich ELISA limits of detection (LoD) of antibody pairs; format: binding; details: S1D12 mAb capture; hT40
T1 construct: Full length tau (hT40)
Description: The diverse panel of high affinity anti-tau antibodies (scAb and mAb formats) were paired in various combinations and tested in a Sandwich (or Capture) ELISA format to calculate their limits of detection (LoD) and their ability to differentiate between different tau species. Biologically, tau exists in 6 different isoforms and is subjected to numerous post translational modifications, some of them playing a significant role in the progression of neurodegeneration.
For Sandwich ELISA using colourimetric detection, 96 well Maxisorp plates were coated with the capture antibody S1D12 mAb at 1 μg/ml for 1 h at RT followed by blocking with 2% MPBS as normal. Full length tau (hT40), at 1 μg/ml starting concentration was added to designated wells and double diluted across rest of the plates and left to incubate at R/T for 1 h. A series of detection scAbs with varying epitope recognition properties were added at 10 μg/ml to designated wells (FIG. 22). For colourimetric detection HRP conjugated anti-HuCk secondary antibody was used and the resulting immunoreaction was developed and absorbance at 450 nm measured as described previously. Cut-off point for a positive binding event was an absorbance value of 0.3 following background subtraction. In order to enhance the assay sensitivity, a chemiluminescent detection method was adopted where 50 μL SuperSignal ELISA Femto Substrate (Thermo Scientific) was added to each well following incubation with anti-HuCK HRP antibody and subsequent washing. The luminescence was read using Clariostar Plus microplate reader. A further modification to this protocol was done where various detection scAbs were directly conjugated with HRP and detected using chemiluminescent protocol as before. The lowest levels of detection achieved using different detection scAbs and a comparison of colourimetric and chemiluminescent methods of detection are shown in Table 28
Similarly, a sandwich ELISA format was set up using S1G2 mAb at 1 μg/ml as the capture antibody and HRP conjugated S1D12 mAb for detection. The assay was conducted using chemiluminescent protocol described above.

dGAE aggregates = dGAE aggregates (Homo sapiens, UniProt P10636); experiment: Sandwich ELISA on SDS/Triton X-100 treated dGAE aggregates; format: binding; design: key to LoD, 423 mAb capture, Untreated dGAE agg. / LoD, Direct immobilisation of dGAE aggregates, Untreated dGAE agg.: NB denotes no binding; details: untreated aggregates
Experimental: We have noticed Sodium dodecyl sulphate (SDS) can break apart dGA/dGAE aggregates and separate them into smaller fragments by performing an SDS-PAGE. This has been replicated and tested using an ELISA as described below.
For aggregation, 1000 μL 100 μM dGAE+10 μL 10 mM DTT was added to a ‘LoBind’ microfuge tubes and agitated at 700 RPM/37° C. for 24 hours. Resulting sample centrifuged at 17,000×g/4° C. for 60 min and supernatant discarded to remove left over monomer. Pellet resuspended in half the original volume for future experiments and hereafter referred to as ‘aggregates’. 1 μl of aggregates was added to 1 ml of PBS and SDS was added to a final concentration of 1% (w/v). This was left to incubate on lab bench for 1 h with gentle agitation every 15 minutes. In order to neutralize the SDS effect on ELISA, Triton X-100 added to a final concentration of 3% (v/v) and mixed gently by pipetting to prevent any bubble formation. 200 μl added of this mix was to the first well of an ELISA plate coated with 1 μg/ml S1D12 mAb and blocked with 2% MPBS. Similarly aggregates treated with only SDS or Triton X-100, untreated aggregates, dGAE monomers treated with only SDS or SDS+Titon X-100 were also added to designated wells as controls. All samples were then double diluted across the plate in final volumes of 100 μl. The final column was left with no protein to act as a blank. This was allowed to stand at room temperature for 1 hour followed by the addition of detection scAb-S1G2 at 10 μg/ml. Anti-HuCk HRP labelled secondary antibody was added as described previously and ELISA data generated was represented using the graph below.

dGAE aggregates, sequence (P10636 614-708): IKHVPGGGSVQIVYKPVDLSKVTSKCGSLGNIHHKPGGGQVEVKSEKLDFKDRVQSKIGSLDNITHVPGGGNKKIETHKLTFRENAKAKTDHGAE
T1 sequence (P10636 1-441 isoform P10636-8): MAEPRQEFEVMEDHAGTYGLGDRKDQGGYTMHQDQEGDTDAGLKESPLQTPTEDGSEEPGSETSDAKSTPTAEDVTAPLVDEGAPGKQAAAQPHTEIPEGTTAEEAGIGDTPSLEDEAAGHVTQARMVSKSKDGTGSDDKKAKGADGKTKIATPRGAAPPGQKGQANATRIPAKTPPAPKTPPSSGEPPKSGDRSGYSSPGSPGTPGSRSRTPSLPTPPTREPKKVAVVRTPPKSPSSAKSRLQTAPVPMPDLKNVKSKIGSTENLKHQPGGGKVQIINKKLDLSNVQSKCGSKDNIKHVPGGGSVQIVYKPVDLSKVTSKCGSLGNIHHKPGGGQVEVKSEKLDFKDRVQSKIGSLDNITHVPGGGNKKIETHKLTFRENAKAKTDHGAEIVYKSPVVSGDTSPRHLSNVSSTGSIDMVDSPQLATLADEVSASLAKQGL

B1: S1G2: sheep-derived anti-tau core clone; scFv SEQ ID NO: 81, VH 455, VL 456 (protein)
scFv: QVQLQESGPSLVKPSQTLSLTCTVSGFSLTSNSVGWVRQAPGKAPEWVAGIDTDGEEGYNPALNSRLSITRDTSKSQVSLSLSSVTSEDTAVYYCGRSYRADGLAYGYVQAIDYWGPGLLVTVSSEGKSSGASGESKVDDQAVVTQPSSVSGSLGQRVSITCSGSFIGISSVGWFQQLPGSGLRTIIVASDGRPSGVPDRFSMSKSGNTATLTISSLQAEDEADYFCGSSDRTPYTGVFGSGTRLTVLG
modifications: S1G2 amino acid sequence
LoD (ng/ml) direct HRP conjugation of detection scAb & chemiluminescence (hT40): 0.04 ng/mL | LoD, Direct immobilisation of dGAE aggregates, Untreated dGAE agg. (dGAE aggregates; direct immobilisation): NB | LoD, 423 mAb capture, Untreated dGAE agg. (dGAE aggregates; sandwich ELISA, 423 mAb capture): NB | LoD, S1D12 mAb capture, Untreated dGAE agg. (dGAE aggregates; sandwich ELISA, S1D12 mAb capture): 250 ng/mL
